Test results as given in PMC5705260.

Experiments:
[1] = biological target: ArtB (Salmonella enterica serovar Typhimurium DT104) (UniProt Q404H3); assay: co-purification of co-expressed subunits
[2] = biological target: ArtB (Salmonella enterica serovar Typhimurium DT104) (UniProt Q404H3); assay: ion exchange chromatography + SEC
[3] = biological target: ArtB-His6 (Salmonella enterica serovar Typhimurium DT104) (UniProt Q404H3); assay: crystal structure
[4] = biological target: PltB-His6 (Salmonella Typhi) (UniProt Q8Z6A3); assay: crystal structure

For “ArtB (from UniProt Q404H3 1-141) (natural protein)”, the stoichiometry N [1] was 5 and the stoichiometry N [2] was 5.

For “ArtB-His6 (from UniProt Q404H3 1-141) (natural protein)”, the stoichiometry N [3] was 5.

“PltB-His6 (from UniProt Q8Z6A3 1-137) (natural protein)” gave a stoichiometry N [4] of 5.
